Laboratory results published in the supplement of paper PMC9112550, “Optimization of the antimicrobial peptide Bac7 by deep mutational scanning” (BMC Biology, 2022).

Tested on: Escherichia coli TOP10
Test: shrunken log2 fold change of peptide-encoding DNA abundance (4.5 h post-induction vs induction); higher = less antimicrobial activity (less host growth inhibition)
Conditions: time post-induction: 4.5 h; library: site-saturation at positions 5, 18, 19, 20
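Also: peptides expressed intracellularly from a pBAD plasmid library in pooled LB shake-flask culture, induced with 0.3% L-arabinose, DNA abundance read by NGS, three biological replicates, DESeq2 with apeglm shrinkage.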

Sequence | shrunken log2 fold change
RRIRRRPPRLPRPRPRPINCPRP | -0.129
RRIRNRPPRLPRPRPRPTSEPRP | 0.194
RRIRIRPPRLPRPRPRPLTCPRP | -0.174
RRIRIRPPRLPRPRPRPDTHPRP | -1.12
RRIRSRPPRLPRPRPRPESRPRP | -0.0244
RRIRTRPPRLPRPRPRPTIQPRP | -0.0327
RRIRCRPPRLPRPRPRPVVRPRP | -0.356
RRIRTRPPRLPRPRPRPMLNPRP | -0.253
RRIRCRPPRLPRPRPRPDVGPRP | -0.0874
RRIRHRPPRLPRPRPRPRCRPRP | 0.615
RRIRYRPPRLPRPRPRPVIRPRP | -0.139
RRIRHRPPRLPRPRPRPFTRPRP | -0.132
RRIRHRPPRLPRPRPRPRKAPRP | -0.0445
RRIRTRPPRLPRPRPRPQIGPRP | -0.0138
RRIRQRPPRLPRPRPRPFHFPRP | -0.0115
RRIRCRPPRLPRPRPRPMDGPRP | 0.013
RRIRCRPPRLPRPRPRPRHVPRP | -0.0723
RRIRIRPPRLPRPRPRPFVYPRP | -0.625
RRIRGRPPRLPRPRPRPAQLPRP | 0.435
RRIRYRPPRLPRPRPRPERRPRP | 0.197
RRIRLRPPRLPRPRPRPARYPRP | -0.0839
RRIRHRPPRLPRPRPRPLMAPRP | -0.206
RRIRNRPPRLPRPRPRPQVAPRP | 0.14
RRIRGRPPRLPRPRPRPQSFPRP | 0.218
RRIRLRPPRLPRPRPRPEPYPRP | -0.305

Sequence | shrunken log2 fold change
RRIRYRPPRLPRPRPRPWTNPRP | -0.00804
RRIRARPPRLPRPRPRPGWYPRP | 0.437
RRIRERPPRLPRPRPRPYQAPRP | 0.019
RRIRMRPPRLPRPRPRPIMWPRP | -0.042
RRIRFRPPRLPRPRPRPMHQPRP | -0.0493
RRIRMRPPRLPRPRPRPMMVPRP | -0.00664
RRIRCRPPRLPRPRPRPICCPRP | -0.166
RRIRGRPPRLPRPRPRPSACPRP | 1.5
RRIRDRPPRLPRPRPRPMRWPRP | 0.274
RRIRSRPPRLPRPRPRPGEPPRP | -0.054
RRIRDRPPRLPRPRPRPRSDPRP | 0.514
RRIRKRPPRLPRPRPRPTERPRP | 0.306
RRIRSRPPRLPRPRPRPVQAPRP | 0.0475
RRIRARPPRLPRPRPRPLCKPRP | 0.326
RRIRYRPPRLPRPRPRPSAGPRP | -0.165
RRIRCRPPRLPRPRPRPRKQPRP | 0.284
RRIRHRPPRLPRPRPRPSICPRP | 0.0424
RRIRRRPPRLPRPRPRPKMAPRP | 0.201
RRIRYRPPRLPRPRPRPSRIPRP | 0.0535
RRIRVRPPRLPRPRPRPMVHPRP | 0.141
RRIRVRPPRLPRPRPRPYGYPRP | -1.16
RRIRLRPPRLPRPRPRPIKDPRP | -0.374
RRIRMRPPRLPRPRPRPRSKPRP | 0.907
RRIRTRPPRLPRPRPRPLYYPRP | -0.771
RRIRERPPRLPRPRPRPGFPPRP | 0.176

Sequence | shrunken log2 fold change
RRIRPRPPRLPRPRPRPHFGPRP | 0.0675
RRIRMRPPRLPRPRPRPDHQPRP | 0.143
RRIRFRPPRLPRPRPRPRAYPRP | -0.23
RRIRPRPPRLPRPRPRPWSSPRP | -0.977
RRIRARPPRLPRPRPRPPPTPRP | 1.13
RRIRLRPPRLPRPRPRPPKRPRP | 0.492
RRIRKRPPRLPRPRPRPRYGPRP | -0.238
RRIRWRPPRLPRPRPRPNLIPRP | 0.0144
RRIRWRPPRLPRPRPRPVTEPRP | 0.361
RRIRCRPPRLPRPRPRPDSHPRP | -0.199
RRIRMRPPRLPRPRPRPKPRPRP | 1.63
RRIRWRPPRLPRPRPRPSNKPRP | -0.403
RRIRTRPPRLPRPRPRPVWSPRP | -0.00993
RRIRGRPPRLPRPRPRPVIMPRP | 0.258
RRIRRRPPRLPRPRPRPHLHPRP | 0.216
RRIRIRPPRLPRPRPRPQHHPRP | -0.875
RRIRYRPPRLPRPRPRPECIPRP | -0.00318
RRIRARPPRLPRPRPRPIAWPRP | 0.442
RRIRERPPRLPRPRPRPDPPPRP | 0.32
RRIRYRPPRLPRPRPRPIYRPRP | -0.641
RRIRSRPPRLPRPRPRPTVEPRP | 0.119
RRIRERPPRLPRPRPRPKMAPRP | 2.39
RRIRSRPPRLPRPRPRPMPLPRP | -0.0685
RRIRWRPPRLPRPRPRPVWEPRP | 0.912
RRIRLRPPRLPRPRPRPCNRPRP | 0.214

Sequence | shrunken log2 fold change
RRIRIRPPRLPRPRPRPLSMPRP | -0.395
RRIRGRPPRLPRPRPRPMCMPRP | 0.509
RRIRHRPPRLPRPRPRPDWPPRP | 0.114
RRIRLRPPRLPRPRPRPFYYPRP | -0.666
RRIRNRPPRLPRPRPRPCLAPRP | -0.69
RRIRMRPPRLPRPRPRPSQLPRP | -0.0454
RRIRQRPPRLPRPRPRPTGNPRP | -0.0862
RRIRPRPPRLPRPRPRPDHAPRP | 0.218
RRIRIRPPRLPRPRPRPAGSPRP | -0.0214
RRIRDRPPRLPRPRPRPCSGPRP | -0.0282
RRIRRRPPRLPRPRPRPVHDPRP | -0.305
RRIRTRPPRLPRPRPRPFFYPRP | -0.345
RRIRIRPPRLPRPRPRPEKGPRP | -0.257
RRIRLRPPRLPRPRPRPCKDPRP | -0.194
RRIRPRPPRLPRPRPRPVFNPRP | -0.344
RRIRTRPPRLPRPRPRPKSNPRP | -0.448
RRIRWRPPRLPRPRPRPKYSPRP | -0.654
RRIRVRPPRLPRPRPRPHDRPRP | 0.068
RRIRDRPPRLPRPRPRPISMPRP | 0.0543
RRIRRRPPRLPRPRPRPTGWPRP | 0.766
RRIRMRPPRLPRPRPRPNKDPRP | 0.0301
RRIRDRPPRLPRPRPRPMPHPRP | -0.0342
RRIRRRPPRLPRPRPRPIFFPRP | 0.261
RRIRWRPPRLPRPRPRPNQHPRP | -0.071
RRIRFRPPRLPRPRPRPHICPRP | -0.0238

Sequence | shrunken log2 fold change
RRIRRRPPRLPRPRPRPKVMPRP | 0.16
RRIRSRPPRLPRPRPRPPTTPRP | 0.391
RRIRMRPPRLPRPRPRPAISPRP | 0.0806
RRIRGRPPRLPRPRPRPAFPPRP | 0.313
RRIRMRPPRLPRPRPRPLKVPRP | 0.153
RRIRGRPPRLPRPRPRPKQIPRP | 0.335
RRIRMRPPRLPRPRPRPTWNPRP | 0.188
RRIRWRPPRLPRPRPRPNHEPRP | -0.197
RRIRGRPPRLPRPRPRPKSTPRP | 1.41
RRIRWRPPRLPRPRPRPCGWPRP | 0.314
RRIRMRPPRLPRPRPRPEMNPRP | 3.59
RRIRCRPPRLPRPRPRPFKTPRP | -0.478
RRIRCRPPRLPRPRPRPLFIPRP | -0.51
RRIRYRPPRLPRPRPRPVFEPRP | 0.0623
RRIRKRPPRLPRPRPRPNPCPRP | 0.117
RRIRMRPPRLPRPRPRPPPQPRP | 1.79
RRIRDRPPRLPRPRPRPNIVPRP | -0.0381
RRIRKRPPRLPRPRPRPLCTPRP | 0.179
RRIRYRPPRLPRPRPRPHPLPRP | -0.719
RRIRLRPPRLPRPRPRPYFEPRP | -0.453
RRIRPRPPRLPRPRPRPSPNPRP | 1.14
RRIRNRPPRLPRPRPRPKLTPRP | 2
RRIRSRPPRLPRPRPRPFEYPRP | -0.115
RRIRNRPPRLPRPRPRPVSMPRP | -0.0312
RRIRPRPPRLPRPRPRPMSFPRP | -0.0289
